Test results from paper PMC9692295.

How the values were obtained:
[1] = molecular target: Gaboon viper virus 1 (GaVV-1) phosphoprotein oligomerisation domain (POD), residues 67 to 178 (Gaboon viper virus 1 (GaVV-1)); experiment: SEC-SAXS
[2] = molecular target: Gaboon viper virus 1 (GaVV-1) phosphoprotein oligomerisation domain (POD), residues 67 to 178 (Gaboon viper virus 1 (GaVV-1)); experiment: crystal structure
[3] = molecular target: Munia bornavirus 1 (MuBV-1) phosphoprotein oligomerisation domain (POD), residues 65 to 172 (munia bornavirus 1 (MuBV-1)); experiment: SEC-SAXS
[4] = molecular target: Munia bornavirus 1 (MuBV-1) phosphoprotein oligomerisation domain (POD), residues 65 to 172 (munia bornavirus 1 (MuBV-1)); experiment: crystal structure

Substance	stoichiometry N [1]	stoichiometry N [2]	stoichiometry N [3]	stoichiometry N [4]
Gaboon viper virus 1 (GaVV-1) phosphoprotein oligomerisation domain (POD), residues 67 to 178 (domain or fragment)	4	4	–	–
Munia bornavirus 1 (MuBV-1) phosphoprotein oligomerisation domain (POD), residues 65 to 172 (domain or fragment)	–	–	4	4
